In PMC9352680, “A comprehensive thermodynamic model for RNA binding by the Saccharomyces cerevisiae Pumilio protein PUF4”:
Positions count from the first letter of the chain named. Names may count otherwise.

T1: PUF4 RNA-binding domain (Saccharomyces cerevisiae, UniProt P25339 537-888)
T1 sequence: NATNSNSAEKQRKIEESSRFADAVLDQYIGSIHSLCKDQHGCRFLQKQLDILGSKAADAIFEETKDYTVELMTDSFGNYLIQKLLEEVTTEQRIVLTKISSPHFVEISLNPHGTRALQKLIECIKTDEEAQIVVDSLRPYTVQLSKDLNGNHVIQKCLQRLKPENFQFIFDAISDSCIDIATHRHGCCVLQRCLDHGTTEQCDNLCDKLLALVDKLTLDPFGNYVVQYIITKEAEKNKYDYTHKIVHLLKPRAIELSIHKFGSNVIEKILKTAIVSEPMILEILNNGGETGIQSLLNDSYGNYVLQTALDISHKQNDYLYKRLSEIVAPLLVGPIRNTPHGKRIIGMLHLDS

B1: Ic_S2_P3E.1_K3.1_C3.1_H3.1_A3.1_[T5A]_[A6T]_F3.1_[T7A]_[A8C]_T3.1 (ssRNA)
RNA: UUUGAUUAAUAUGAUAUCGUUCUUUCUUGUAAUACUUCUUUCUCGAUAUCAUAUUAAUCUUU
B2: Ic_S2_P3E.1_K3.1_C3.1_H3.1_A3.1_[T5A]_[A6T]_F3.1_[T7A]_[A8T]_T3.1 (ssRNA)
RNA: B1 RNA with C35U
B3: Ic_S2_P3E.1_K3.1_C3.1_H3.1_A3.1_[T5A]_[A6T]_F3.1_[A8C]_T3.1 (ssRNA)
RNA: B1 RNA with A34U
B4: Ic_S2_P3E.1_K3.1_C3.1_H3.1_A3.1_[T5A]_[A6T]_F3.1_[A8T]_T3.1 (ssRNA)
RNA: B1 RNA with A34U, C35U
B5: Ic_S2_P3E.1_K3.1_C3.1_H3.1_A3.1_[T5A]_F3.1_[T7C]_[A8T]_T3.1 (ssRNA)
RNA: B1 RNA with U33A, A34C, C35U
B6: Ic_S2_P3E.1_K3.1_C3.1_H3.1_A3.1_[T5A]_F3.1_[T7A]_[A8C]_T3.1 (ssRNA)
RNA: B1 RNA with U33A
B7: Ic_S2_P3E.1_K3.1_C3.1_H3.1_A3.1_[A6G]_F3.1_[T7G]_[A8C]_T3.1 (ssRNA)
RNA: B1 RNA with A32U, U33G, A34G
B8: Ic_S2_P3E.1_K3.1_C3.1_H3.1_A3.1_[A6G]_F3.1_[T7C]_[A8C]_T3.1 (ssRNA)
RNA: B1 RNA with A32U, U33G, A34C
B9: Ic_S2_P3E.1_K3.1_C3.1_H3.1_A3.1_[A6C]_F3.1_[T7G]_[A8T]_T3.1 (ssRNA)
RNA: B1 RNA with A32U, U33C, A34G, C35U
B10: Ic_S2_P3E.1_K3.1_C3.1_H3.1_A3.1_[A6C]_F3.1_[T7C]_[A8C]_T3.1 (ssRNA)
RNA: B1 RNA with A32U, U33C, A34C
B11: Ic_S2_P3E.1_K3.1_C3.1_H3.1_A3.1_[A6C]_F3.1_[T7C]_[A8T]_T3.1 (ssRNA)
RNA: B1 RNA with A32U, U33C, A34C, C35U
B12: Ic_S2_P3E.1_K3.1_C3.1_H3.1_A3.1_[A6C]_F3.1_[T7A]_[A8G]_T3.1 (ssRNA)
RNA: B1 RNA with A32U, U33C, C35G
B13: Ic_S2_P3E.1_K3.1_C3.1_H3.1_A3.1_[A6C]_F3.1_[T7A]_[A8T]_T3.1 (ssRNA)
RNA: B1 RNA with A32U, U33C, C35U
B14: Ic_S2_P3E.1_K3.1_C3.1_H3.1_A3.1_[A6T]_F3.1_[T7G]_[A8C]_T3.1 (ssRNA)
RNA: B1 RNA with A32U, A34G
B15: Ic_S2_P3E.1_K3.1_C3.1_H3.1_A3.1_[A6T]_F3.1_[T7C]_[A8G]_T3.1 (ssRNA)
RNA: B1 RNA with A32U, A34C, C35G
B16: Ic_S2_P3E.1_K3.1_C3.1_H3.1_A3.1_[A6T]_F3.1_[T7C]_[A8C]_T3.1 (ssRNA)
RNA: B1 RNA with A32U, A34C
B17: Ic_S2_P3E.1_K3.1_C3.1_H3.1_A3.1_[A6T]_F3.1_[T7C]_[A8T]_T3.1 (ssRNA)
RNA: B1 RNA with A32U, A34C, C35U
B18: Ic_S2_P3E.1_K3.1_C3.1_H3.1_A3.1_F3.1_T3.1 (ssRNA)
RNA: B1 RNA with A32U, U33A, A34U, C35A
B19: Ic_S2_P4E.1_K4.1_C4.1_H4.1_A4.1_[T5G]_[A6C]_[T7G]_F4.1_[T8G]_[A9T]_T4.1 (ssRNA)
RNA: UUUGAUUAAUAUGAUAUCGUUCUUUCUUGUAGCGGUUUCUUUCUCGAUAUCAUAUUAAUCUUU
B20: Ic_S2_P4E.1_K4.1_C4.1_H4.1_A4.1_[T5G]_[A6C]_[T7G]_F4.1_[T8C]_[A9G]_T4.1 (ssRNA)
RNA: B19 RNA with G35C, U36G
B21: Ic_S2_P4E.1_K4.1_C4.1_H4.1_A4.1_[T5G]_[A6C]_[T7G]_F4.1_[T8C]_[A9C]_T4.1 (ssRNA)
RNA: B19 RNA with G35C, U36C
B22: Ic_S2_P4E.1_K4.1_C4.1_H4.1_A4.1_[T5G]_[A6C]_[T7G]_F4.1_[A9C]_T4.1 (ssRNA)
RNA: B19 RNA with G35U, U36C
B23: Ic_S2_P4E.1_K4.1_C4.1_H4.1_A4.1_[T5G]_[A6C]_[T7G]_F4.1_T4.1 (ssRNA)
RNA: B19 RNA with G35U, U36A
B24: Ic_S2_P4E.1_K4.1_C4.1_H4.1_A4.1_[T5G]_[A6C]_[T7C]_F4.1_[T8G]_[A9C]_T4.1 (ssRNA)
RNA: B19 RNA with G34C, U36C
B25: Ic_S2_P4E.1_K4.1_C4.1_H4.1_A4.1_[T5G]_[A6C]_[T7C]_F4.1_[T8C]_[A9G]_T4.1 (ssRNA)
RNA: B19 RNA with G34C, G35C, U36G
B26: Ic_S2_P4E.1_K4.1_C4.1_H4.1_A4.1_[T5G]_[A6C]_[T7C]_F4.1_[T8C]_[A9C]_T4.1 (ssRNA)
RNA: B19 RNA with G34C, G35C, U36C
B27: Ic_S2_P4E.1_K4.1_C4.1_H4.1_A4.1_[T5G]_[A6C]_[T7C]_F4.1_[T8C]_[A9T]_T4.1 (ssRNA)
RNA: B19 RNA with G34C, G35C
B28: Ic_S2_P4E.1_K4.1_C4.1_H4.1_A4.1_[T5G]_[A6C]_[T7C]_F4.1_[T8C]_T4.1 (ssRNA)
RNA: B19 RNA with G34C, G35C, U36A
B29: Ic_S2_P4E.1_K4.1_C4.1_H4.1_A4.1_[T5G]_[A6C]_[T7C]_F4.1_[T8A]_[A9G]_T4.1 (ssRNA)
RNA: B19 RNA with G34C, G35A, U36G
B30: Ic_S2_P4E.1_K4.1_C4.1_H4.1_A4.1_[T5G]_[A6C]_[T7C]_F4.1_[T8A]_[A9C]_T4.1 (ssRNA)
RNA: B19 RNA with G34C, G35A, U36C
B31: Ic_S2_P4E.1_K4.1_C4.1_H4.1_A4.1_[T5G]_[A6C]_[T7C]_F4.1_[T8A]_[A9T]_T4.1 (ssRNA)
RNA: B19 RNA with G34C, G35A
B32: Ic_S2_P4E.1_K4.1_C4.1_H4.1_A4.1_[T5G]_[A6C]_[T7C]_F4.1_[A9G]_T4.1 (ssRNA)
RNA: B19 RNA with G34C, G35U, U36G
B33: Ic_S2_P4E.1_K4.1_C4.1_H4.1_A4.1_[T5G]_[A6C]_[T7C]_F4.1_[A9T]_T4.1 (ssRNA)
RNA: B19 RNA with G34C, G35U
B34: Ic_S2_P4E.1_K4.1_C4.1_H4.1_A4.1_[T5G]_[A6C]_[T7C]_F4.1_T4.1 (ssRNA)
RNA: B19 RNA with G34C, G35U, U36A
B35: Ic_S2_P4E.1_K4.1_C4.1_H4.1_A4.1_[T5G]_[A6C]_[T7A]_F4.1_[T8C]_T4.1 (ssRNA)
RNA: B19 RNA with G34A, G35C, U36A
B36: Ic_S2_P4E.1_K4.1_C4.1_H4.1_A4.1_[T5G]_[A6C]_[T7A]_F4.1_[T8A]_T4.1 (ssRNA)
RNA: B19 RNA with G34A, G35A, U36A
B37: Ic_S2_P4E.1_K4.1_C4.1_H4.1_A4.1_[T5G]_[A6C]_[T7A]_F4.1_[A9G]_T4.1 (ssRNA)
RNA: B19 RNA with G34A, G35U, U36G
B38: Ic_S2_P4E.1_K4.1_C4.1_H4.1_A4.1_[T5G]_[A6C]_[T7A]_F4.1_[A9T]_T4.1 (ssRNA)
RNA: B19 RNA with G34A, G35U
B39: Ic_S2_P4E.1_K4.1_C4.1_H4.1_A4.1_[T5G]_[A6C]_[T7A]_F4.1_T4.1 (ssRNA)
RNA: B19 RNA with G34A, G35U, U36A
B40: Ic_S2_P4E.1_K4.1_C4.1_H4.1_A4.1_[T5G]_[A6C]_F4.1_[T8G]_[A9G]_T4.1 (ssRNA)
RNA: B19 RNA with G34U, U36G
B41: Ic_S2_P4E.1_K4.1_C4.1_H4.1_A4.1_[T5G]_[A6C]_F4.1_[T8C]_[A9G]_T4.1 (ssRNA)
RNA: B19 RNA with G34U, G35C, U36G
B42: Ic_S2_P4E.1_K4.1_C4.1_H4.1_A4.1_[T5G]_[A6C]_F4.1_[T8C]_T4.1 (ssRNA)
RNA: B19 RNA with G34U, G35C, U36A
B43: Ic_S2_P4E.1_K4.1_C4.1_H4.1_A4.1_[T5G]_[A6C]_F4.1_[T8A]_[A9G]_T4.1 (ssRNA)
RNA: B19 RNA with G34U, G35A, U36G
B44: Ic_S2_P4E.1_K4.1_C4.1_H4.1_A4.1_[T5G]_[A6C]_F4.1_[T8A]_T4.1 (ssRNA)
RNA: B19 RNA with G34U, G35A, U36A
B45: Ic_S2_P4E.1_K4.1_C4.1_H4.1_A4.1_[T5G]_[A6C]_F4.1_[A9G]_T4.1 (ssRNA)
RNA: B19 RNA with G34U, G35U, U36G
B46: Ic_S2_P4E.1_K4.1_C4.1_H4.1_A4.1_[T5G]_[A6C]_F4.1_[A9C]_T4.1 (ssRNA)
RNA: B19 RNA with G34U, G35U, U36C
B47: Ic_S2_P4E.1_K4.1_C4.1_H4.1_A4.1_[T5G]_[A6C]_F4.1_[A9T]_T4.1 (ssRNA)
RNA: B19 RNA with G34U, G35U
B48: Ic_S2_P4E.1_K4.1_C4.1_H4.1_A4.1_[T5G]_[A6T]_[T7G]_F4.1_[T8C]_[A9G]_T4.1 (ssRNA)
RNA: B19 RNA with C33U, G35C, U36G
B49: Ic_S2_P4E.1_K4.1_C4.1_H4.1_A4.1_[T5G]_[A6T]_[T7G]_F4.1_[T8C]_[A9T]_T4.1 (ssRNA)
RNA: B19 RNA with C33U, G35C
B50: Ic_S2_P4E.1_K4.1_C4.1_H4.1_A4.1_[T5G]_[A6T]_[T7C]_F4.1_[T8G]_[A9C]_T4.1 (ssRNA)
RNA: B19 RNA with C33U, G34C, U36C
B51: Ic_S2_P4E.1_K4.1_C4.1_H4.1_A4.1_[T5G]_[A6T]_[T7C]_F4.1_[T8G]_[A9T]_T4.1 (ssRNA)
RNA: B19 RNA with C33U, G34C

Target: T1, PUF4 RNA-binding domain
Test: Mg; RNA-MaP; 20 mM Na-HEPES pH 7.4, 30 mM KOAc, 0.75 mM MgCl2, 0.1% Tween-20, 5% glycerol, 0.1 mg/mL BSA, 2 mM DTT; 25 C; 0.0125-409.6 nM protein
Settings: tags: N-His6-TEV cleaved; C-SNAP kept, Cy3B-labelled; label: tethered on chip by stalled RNA polymerase

Binder | Kd
B1 | 158 nM
UCUCUUUGUAUAUUCUCUCUU (ssRNA) [Ic_S1_P4E.1_K4.1_C4.1_H4.1_A4.1_F4.1_[A9C]_T4.1] | 6.17 nM
UCUCUUUUUAUUUAUCUCUU (ssRNA) [Ib_S1_P3E.1_K3.1_C3.1_H3.1_[G2T]_A3.1_[A6T]_F3.1_T3.1] | > 2300 nM
B2 | 11.6 nM
B3 | 120 nM
B4 | 19.2 nM
B5 | 19.9 nM
B6 | 621 nM
B7 | 950 nM
B8 | 585 nM
B9 | 114 nM
B10 | 132 nM
B11 | 13.7 nM
UCUCUUUAUAUGUAUCUCUU (ssRNA) [Ib_S1_P3E.1_K3.1_C3.1_H3.1_[G2A]_A3.1_[A6G]_F3.1_T3.1] | 384 nM
B12 | 208 nM
B13 | 4.83 nM
B14 | 442 nM
B15 | 234 nM
B16 | 76 nM
B17 | 11.9 nM

Binder | Kd
B18 | 1.38 nM
B19 | 808 nM
B20 | > 2300 nM
B21 | 750 nM
UCUCUUUAUAUUUAUCUCUU (ssRNA) [Ib_S1_P3E.1_K3.1_C3.1_H3.1_[G2A]_A3.1_[A6T]_F3.1_T3.1] | > 2300 nM
B22 | 782 nM
B23 | 9.8 nM
B24 | > 2300 nM
B25 | 1680 nM
B26 | 685 nM
B27 | 614 nM
B28 | 1090 nM
B29 | > 2300 nM
B30 | 1280 nM
B31 | 402 nM
UCUCUUUGCAAAUAUCUCUU (ssRNA) [Ib_S1_P3E.1_K3.1_C3.1_H3.1_[T3C]_A3.1_[T5A]_F3.1_T3.1] | > 2300 nM
B32 | 300 nM
B33 | 48 nM
B34 | 5.95 nM
B35 | 828 nM

Binder | Kd
B36 | 360 nM
B37 | 27.6 nM
B38 | 9.32 nM
B39 | 1.41 nM
B40 | 709 nM
B41 | 988 nM
UCUCUUUGCAUGUAUCUCUU (ssRNA) [Ib_S1_P3E.1_K3.1_C3.1_H3.1_[T3C]_A3.1_[A6G]_F3.1_T3.1] | 535 nM
B42 | 266 nM
B43 | 846 nM
B44 | 111 nM
B45 | 208 nM
B46 | 52.2 nM
B47 | 30.4 nM
B48 | 651 nM
B49 | 478 nM
B50 | 598 nM
B51 | 288 nM
UCUCUUUGUUCAUAUCUCUU (ssRNA) [Ib_S1_P3E.1_K3.1_C3.1_H3.1_[A4T]_A3.1_[T5C]_F3.1_T3.1] | 682 nM
